Patent US20230242671A1 (Eli Lilly, published 2023)

Assays:
[1] = molecular target: T1, CaptureSelect Kappa XL ligand; test: CaptureSelect Kappa XL affinity column after Protein A
T1 construct: also called Biotin-KappaXL; Kappa XL column
From the text: Multispecific binding proteins of the present disclosure, in clarified medium or recovered from Protein A purification, may be subjected to a second purification step using a CaptureSelect™ Kappa XL (Thermo Fisher Cat. #494321001) pre-packed affinity column. Briefly, multispecific binding proteins of the present disclosure recovered from Protein A purification are subjected to a Kappa XL affinity column which has been equilibrated with a compatible buffer, such as phosphate buffered saline (PBS) at pH 7.4. The column is then washed to remove nonspecific binding components. The bound multispecific binding protein is eluted, for example, by pH gradient (such as 20 mM Tris buffer pH 7.0 to 10 mM sodium citrate buffer pH 3.0). Binding protein fractions are detected, such as by UV absorbance or SDS-PAGE, and then are pooled.
Percent flow through (% F T) and percent elution of exemplified heteromabs of the present disclosure following kappa XL column purification essentially as described herein is assessed. Briefly, various antibody formats (as set forth in Table 3) are subjected to Kappa XL column. Flow through material is considered to comprise of impurities, such as homodimers, or misassembled antibodies, whereas the Kappa XL ligand bound material (elution material) is considered to be the correctly assembled bispecific antibody.

[2] = molecular target: T2, human TIGIT-ECD (human, UniProt Q495A1 22-141); test: ELISA, antibody at 1 µg/mL captured by anti-human-Fc, antigen titrated
T2 construct: extracellular domain
T2 sequence (looked up): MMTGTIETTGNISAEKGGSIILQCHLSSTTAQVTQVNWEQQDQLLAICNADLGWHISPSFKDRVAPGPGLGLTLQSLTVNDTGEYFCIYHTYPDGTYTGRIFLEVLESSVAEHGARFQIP
Protocol: (§1) Binding affinity of exemplified multispecific binding proteins provided herein is assessed via ELISA. Briefly, 384-well flat bottom Elisa plates are coated with 1 ug/mL anti-human-Fc protein at 20 ul/well and incubated overnight at 4° C. The following day, plates are washed 3× with wash buffer (0.05% PBS-Tween 20) and blocked for 1 hr with blocking buffer (casein, 60 μL/well) at room temperature (RT). Plates are washed 3× with wash buffer, and binding proteins as shown in Table 10 are added at 1 μg/mL in triplicates at 20 uL/well in DPBS (Dulbecco's HyClone). Plates are incubated at RT for 1 hr, washed 3× with wash buffer, and titrated antigens are added at 20 ul/well and incubated for 60 min at RT. Plates are washed 3×, and 20 uL/well NAAP substrate is added and incubated for 20 min. Plates are washed 3×, and PNPP substrate is added at 20 uL/well, and reactions are stopped, and optical density is measured using a colorimetric microplate reader set to 405 nm.

[3] = molecular target: T3, human PD-1-ECD (human, UniProt Q15116 25-170); test: as above
T3 construct: extracellular domain
Protocol: as §1

T3 sequence (Q15116 25-170): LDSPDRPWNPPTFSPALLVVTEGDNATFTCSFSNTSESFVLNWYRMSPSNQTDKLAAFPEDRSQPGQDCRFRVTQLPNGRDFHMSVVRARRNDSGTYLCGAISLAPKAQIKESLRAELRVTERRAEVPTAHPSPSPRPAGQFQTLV

Binder | % Elution [1] | % Flow Through (FT) [1] | EC50 [2] | EC50 [3]
PD-1-TIGIT parental IgG1 heteromab (bispecific antibody, Unmodified control heteromab; also called PD-1-TIGIT IgG1 heteromab; PD-1-Tigit IgG1 heteromab) heavy 1: QVQLVQSGAEVKKPGSSVKVSCKASGGTFSSYAISWVRYAPGQGLEWMGLIIPSFDTAGYAQKFQGRVAITVDESTSTAYMELSSLRSEDTAVYYCARAEHSSTGTFDYWGRGTLVTVSSASTKGPSVFPLAPSSKSTSGGTAALGCLVADYFPEPVTVSWNSGALTSGVHTFPAVLQSSGLYSLASVVTVPSSSLGTQTYICNVNHKPSNTKVDERVEPKSCDKTHTCPPCPAPEAAGGPSVFLFPPKPKDTLMISRTPEVTCVVVDVSHEDPEVKFNWYVDGVEVHNAKTKPREEQYNSTYRVVSVLTVLHQDWLNGKEYKCKVSNKALAAPIEKTISKAKGQPREPQVYTLPPSREEMTDNQVSLTCLVKGFYPSDIAVEWESNGQPENNYKTTPPVLMSDGSFFLASKLTVDKSRWQQGNVFSCSVMHEALHNHYTQKSLSLSPGK light 1: DIQMTQSPSSVSASVGDRVTITCRASQGISSWLAWYQRKPGDAPKLLISAASSLQSGVPSRFSGSGSGTDFTLTISSLQPEDFATYYCQQANHLPFTFGGGTKVEIKRTVAAPSVFIFPPSDKQLKSGTARVVCLLNNFYPREAKVQWKVDNALQSGNSQESVTEQDSKDSTYSLISTLTLSKADYEKHKVYACEVTHQGLSSPVTKSFNRGEC heavy 2: EVQLVESGGGLVQPGGSLRLSCAASGFDFSSYGVPWVRKAPGKGLEWVGYIDPIFGPTYYADEVKGRFTISADDSKNSLYLQMNSLKTEDTAVYYCARDYSYGYAYALDIWGQGTLVTVSSASTKGPSVFPLAPSSKSTSGGTAALGCLVKDYFPEPVTVSWNSGALTSGVHTFPAVLQSSGLYSLSSVVTVPSSSLGTQTYICNVNHKPSNTKVDKRVEPKSCDKTHTCPPCPAPEAAGGPSVFLFPPKPKDTLMISRTPEVTCVVVDVSHEDPEVKFNWYVDGVEVHNAKTKPREEQYNSTYRVVSVLTVLHQDWLNGKEYKCKVSNKALAAPIEKTISKAKGQPRRPRVYTLPPSREEMTKNQVSLVCLVKGFYPSDIAVEWESNGQPENNYKTTPPVLDSDGSFFLYSVLTVDKSRWQQGNVFSCSVMHEALHNHYTQKSLSLSPGK light 2: RIVMTQTPLSLSVTPGQPASISCQASQRISPYLAWYLDKPGQPPQLLISRASKLASGVPDRFSGSGSGTDFTLKISRVEAEDVGVYYCQSYYVHTSSGYAFGGGTKVEIKRTVAAPSVFIFPPSDEQLKSGTASVVCLLNNFYPREAKVQWKVDNALQSGNSQESVTEQDSKDSTYSLSSTLTLSKADYEKHKVYACEVTHQGLSSPVTKSFNRGEC | 99.6% | 0.44% | 0.0681 nM | 7 pM
PD-1-TIGIT IgG1 heteromab (ADK on PD-1 light chain Fab region only) (bispecific antibody, also called PD-1-Tigit IgG1 heteromab (with ADK LC Fab region on PD-1 arm only)) heavy 1: QVQLVQSGAEVKKPGSSVKVSCKASGGTFSSYAISWVRYAPGQGLEWMGLIIPSFDTAGYAQKFQGRVAITVDESTSTAYMELSSLRSEDTAVYYCARAEHSSTGTFDYWGRGTLVTVSSASTKGPSVFPLAPSSKSTSGGTAALGCLVADYFPEPVTVSWNSGALTSGVHTFPAVLQSSGLYSLASVVTVPSSSLGTQTYICNVNHKPSNTKVDERVEPKSCDKTHTCPPCPAPEAAGGPSVFLFPPKPKDTLMISRTPEVTCVVVDVSHEDPEVKFNWYVDGVEVHNAKTKPREEQYNSTYRVVSVLTVLHQDWLNGKEYKCKVSNKALAAPIEKTISKAKGQPREPQVYTLPPSREEMTDNQVSLTCLVKGFYPSDIAVEWESNGQPENNYKTTPPVLMSDGSFFLASKLTVDKSRWQQGNVFSCSVMHEALHNHYTQKSLSLSPGK light 1: DIQMTQSPSSVSASVGDRVTITCRASQGISSWLAWYQRKPGDAPKLLISAASSLQSGVPSRFSGSGSGTDFTLTISSLQPEDFATYYCQQANHLPFTFGGGTKVEIKRADAAPSVFIFPPSDKQLKSGTARVVCLLNNFYPREAKVQWKVDNALQSGNSQESVTEQDSKDSTYSLISTLTLSKADYEKHKVYACEVTHKGLSSPVTKSFNRGEC heavy 2: EVQLVESGGGLVQPGGSLRLSCAASGFDFSSYGVPWVRKAPGKGLEWVGYIDPIFGPTYYADEVKGRFTISADDSKNSLYLQMNSLKTEDTAVYYCARDYSYGYAYALDIWGQGTLVTVSSASTKGPSVFPLAPSSKSTSGGTAALGCLVKDYFPEPVTVSWNSGALTSGVHTFPAVLQSSGLYSLSSVVTVPSSSLGTQTYICNVNHKPSNTKVDKRVEPKSCDKTHTCPPCPAPEAAGGPSVFLFPPKPKDTLMISRTPEVTCVVVDVSHEDPEVKFNWYVDGVEVHNAKTKPREEQYNSTYRVVSVLTVLHQDWLNGKEYKCKVSNKALAAPIEKTISKAKGQPRRPRVYTLPPSREEMTKNQVSLVCLVKGFYPSDIAVEWESNGQPENNYKTTPPVLDSDGSFFLYSVLTVDKSRWQQGNVFSCSVMHEALHNHYTQKSLSLSPGK light 2: RIVMTQTPLSLSVTPGQPASISCQASQRISPYLAWYLDKPGQPPQLLISRASKLASGVPDRFSGSGSGTDFTLKISRVEAEDVGVYYCQSYYVHTSSGYAFGGGTKVEIKRTVAAPSVFIFPPSDEQLKSGTASVVCLLNNFYPREAKVQWKVDNALQSGNSQESVTEQDSKDSTYSLSSTLTLSKADYEKHKVYACEVTHQGLSSPVTKSFNRGEC | 78.2% | 21.8% | 0.0108 nM | 30.3 pM
PD-1-TIGIT IgG1 heteromab (DK on PD-1 light chain Fab region only) (bispecific antibody, also called PD-1-Tigit IgG1 heteromab (with DK LC Fab region on PD-1 arm only)) heavy 1: QVQLVQSGAEVKKPGSSVKVSCKASGGTFSSYAISWVRYAPGQGLEWMGLIIPSFDTAGYAQKFQGRVAITVDESTSTAYMELSSLRSEDTAVYYCARAEHSSTGTFDYWGRGTLVTVSSASTKGPSVFPLAPSSKSTSGGTAALGCLVADYFPEPVTVSWNSGALTSGVHTFPAVLQSSGLYSLASVVTVPSSSLGTQTYICNVNHKPSNTKVDERVEPKSCDKTHTCPPCPAPEAAGGPSVFLFPPKPKDTLMISRTPEVTCVVVDVSHEDPEVKFNWYVDGVEVHNAKTKPREEQYNSTYRVVSVLTVLHQDWLNGKEYKCKVSNKALAAPIEKTISKAKGQPREPQVYTLPPSREEMTDNQVSLTCLVKGFYPSDIAVEWESNGQPENNYKTTPPVLMSDGSFFLASKLTVDKSRWQQGNVFSCSVMHEALHNHYTQKSLSLSPGK light 1: DIQMTQSPSSVSASVGDRVTITCRASQGISSWLAWYQRKPGDAPKLLISAASSLQSGVPSRFSGSGSGTDFTLTISSLQPEDFATYYCQQANHLPFTFGGGTKVEIKRTDAAPSVFIFPPSDKQLKSGTARVVCLLNNFYPRKAKVQWKVDNALQSGNSQESVTEQDSKDSTYSLISTLTLSKADYEKHKVYACEVTHQGLSSPVTKSFNRGEC heavy 2: EVQLVESGGGLVQPGGSLRLSCAASGFDFSSYGVPWVRKAPGKGLEWVGYIDPIFGPTYYADEVKGRFTISADDSKNSLYLQMNSLKTEDTAVYYCARDYSYGYAYALDIWGQGTLVTVSSASTKGPSVFPLAPSSKSTSGGTAALGCLVKDYFPEPVTVSWNSGALTSGVHTFPAVLQSSGLYSLSSVVTVPSSSLGTQTYICNVNHKPSNTKVDKRVEPKSCDKTHTCPPCPAPEAAGGPSVFLFPPKPKDTLMISRTPEVTCVVVDVSHEDPEVKFNWYVDGVEVHNAKTKPREEQYNSTYRVVSVLTVLHQDWLNGKEYKCKVSNKALAAPIEKTISKAKGQPRRPRVYTLPPSREEMTKNQVSLVCLVKGFYPSDIAVEWESNGQPENNYKTTPPVLDSDGSFFLYSVLTVDKSRWQQGNVFSCSVMHEALHNHYTQKSLSLSPGK light 2: RIVMTQTPLSLSVTPGQPASISCQASQRISPYLAWYLDKPGQPPQLLISRASKLASGVPDRFSGSGSGTDFTLKISRVEAEDVGVYYCQSYYVHTSSGYAFGGGTKVEIKRTVAAPSVFIFPPSDEQLKSGTASVVCLLNNFYPREAKVQWKVDNALQSGNSQESVTEQDSKDSTYSLSSTLTLSKADYEKHKVYACEVTHQGLSSPVTKSFNRGEC | 73.5% | 26.6% | 0.0261 nM | 9.7 pM
